This note sets out measurements from patent US20090291088A1, “THERAPEUTIC COMBINATIONS OF ANTI-IGF-1R ANTIBODIES AND OTHER COMPOUNDS” (Biogen Idec MA Inc., priority 2008, published 2009).

Where a chain is given by its changes, count along the chain named. Read-outs that look alike come from different tables or passages of the source.

Assay [1] has as its target T1, IGF-1R expressed on MCF-7 cells (Homo sapiens, UniProt P08069).
T1 construct: wild type IGF-1R expressed on MCF-7 tumor cells; endogenous in cells; host or cells: MCF-7
As to the kind of experiment: Flow cytometry binding to wild type IGF-1R on MCF-7 tumor cells. The protocol: The ability of Fabs to bind to the wild type IGF-1R was determined by flowcytometry using MCF-7 tumor cell line.
MCF-7 cells (Human Breast Adenocarcinoma from NCI) were split 24 hours prior to the setup of the assay to obtain 70% confluent monolayer. Routinely, MCF-7 cell line was maintained within 20 passages. Cells were lifted with cell dissociation buffer (Gibco catalog #13151-014), counted, washed and adjusted to 1×10^6 cells/ml and one ml of cells were then added to each tube (12×75 mm tube Falcon catalog# 352054). Cells were pelleted and supernatant removed by centrifugation at 1200 rpm for 5 min and 100 μl of diluted antibodies were then added to the cell pellet. Purified Fabs were tested at a starting concentration of either 210 or 60 μg/ml with 1:3 dilutions in FACS buffer, down to 0.001 μg/ml. FACS buffer used throughout the assay was PBS (without Ca++/Mg++) containing 1% BSA (Sigma catalog# A-7906; Sigma-Aldrich Corp. (St. Louis, Mo., USA)) and 0.1% Sodium Azide (Sigma catalog #S2002). As a positive control IR3 a murine antibody (Ab-1; Calbiochem #GR11L) was used. Samples were allowed to incubate on ice for 1 hour and 15 minutes then were washed with 2 ml FACS buffer and centrifuged at 1200 rpm for 5 minutes at 4° C. The supernatant was aspirated and 100 μl of the secondary detection antibody was added to each corresponding tube in FACS buffer. Samples were then incubated for 30 minutes on ice, in the dark. Cells were washed as described above, then, re-suspended in […] FACS buffer per tube/sample.
Cells were stained for live cell determination with Propidium Iodide staining solution (PI for dead cell exclusion; BD Pharmingen catalog# 51-66211E or 556463; use at 1:500 final in FACS buffer). […]
Once samples have been run and geometric means determined, antibody concentration (X axis) vs. geometric mean (Y axis) was graphed to the log 10, using Graphpad Prism (Prism Graph) graphing program. […]
The binding activity of human antibodies to wild type IGF-1R expressed on tumor cells was determined by flow cytometry. […]

The target in the next assay is T2, IGF-1R phosphorylation (Homo sapiens, UniProt P08069).
T2 construct: wild type IGF-1R expressed on MCF-7 tumor cells; endogenous in cells; host or cells: MCF-7
Put plainly: Inhibition of IGF-1 and IGF-2 mediated IGF-1R phosphorylation in MCF-7 cells (ELISA). As to conditions: for Inhibition of IGF-1R Phosphorylation IGF-1 / Inhibition of IGF-1R Phosphorylation IGF-2: Fabs, MCF-7; for Inhibition of IGF-1R Phosphorylation IGF-1: IGF-1 stimulated; for Inhibition of IGF-1R Phosphorylation IGF-2: IGF-2 stimulated; for Inhibition of IGF-1R.pTyr IGF-1 / Inhibition of IGF-1R.pTyr IGF-2: murine monoclonal antibodies. The format is cell-based. On the procedure: Cell lines: IGF1R expressing human breast carcinoma cell line MCF-7 (NCI) were maintained at 37° C. and 5% CO2 in MEM eagle (ATCC) containing 10% FBS, 1× non-essential amino acids, 2 mM L-glutamine, 1 mM sodium pyruvate and 1000 U/ml penicillin and streptomycin. Cells were sub-cultured twice weekly for maintenance and assay, and used with a maximum of 12 passages.
MCF-7 cells were plated in 2 ml growth media at 2×10^5 to 4.0×10^5 cells/well in Ploy-D-Lysine coated 12 well plates (BD Biosciences, #35-6470) and cultured at 37° C., 5% CO2. At 48 hours, media removed and cells serum starved overnight at 37° C., 5% CO2 Serum free media was removed and control or test antibodies at indicated concentration were added in 350 ul of fresh serum free media and incubated for 1 hour at room temperature, or alternately at 37° C. Fabs were tested at 200 nM, 20 nM and 2 nM concentration and the mAbs were tested at 67, 6.7 and 0.67 nM. The commercial anti-IGF-1R control antibody used was αIR3 (EMD biosciences, Oncogene Research products, #D27249). […] Ligand was incubated at […] for 37° C. antibody experiments. Cells were lysed in 1× cell lysis buffer (Cell Signal Technologies, #9803) with 1 mM PMSF for 1 hour at room temperature.
Cell lysates were added to ELISA plates pre-coated with IGF-1Rp antibody (Clone 1-2, Biosource International, #AHR0361) and incubated for 2 hours. Following which plates were washed and the plate bound phosphorylated receptor was detected with the biotin labeled anti-phosphotyrosine antibody 4G10 (Catalog #16-103, Upstate Cell Signaling Solutions (Lake Placid, N.Y. (now part of Millipore, Concord, Mass. (USA)) and streptavidin-HRP (BD Pharmingen, #554066). Assay is developed by addition of TMB substrate (Kierkegaard & Perry, #50-76-00) and color stopped by addition of […] (LabChem, Cat#LC25830-1). Optical density is measured at 450 nm using a Molecular Devices plate reader and percent inhibition over the ligand control is calculated for each antibody-ligand sample.
The effect of human anti-IGF-1R antibodies on IGF-1R signaling was evaluated using MCF-7 cells (human breast adenocarcinoma cells).
In general terms: In an ELISA, binding on a coated surface is turned into a signal by an enzyme label.

The mark [2] stands for this setting: murine monoclonal antibodies, read-out: Binding (EC50nM) Tumor MCF-7.

B1: Fab M12-E01: human anti-human IGF-1R Fab from phage display library; VH SEQ ID NO:4, VL SEQ ID NO:68 (antibody, V domains shown)
VH: EVQLLESGGGLVQPGGSLRLSCAASGFTFSPYSMLWVRQAPGKGLEWVSSIGSSGGSTRYADSVKGRFTISRDNSKNTLYLQMNSLRAEDTAMYYCARVRGILHYDILIGRNLYYYYMDVWGKGTTVTVSS
VL: QYELTQPPSVSEAPRQRVTISCSGSSSNIGNNAINWYQQLPGKPPKLLIYYDDLLPSGVSDRFSGSKSGTSGSLAISGLQSEDEADYYCAAWDDNLNGVIFGGGTKLTVL
modifications: Antibody variable heavy chain sequence; Antibody variable light chain sequence
On to B1, for which, in assay [1] (purified Fabs, read-out: FACS Binding MCF-7 EC50nM), the EC50 was determined as 7.4 nM. In the assay with IGF-1R phosphorylation, the “Inhibition of IGF-1R Phosphorylation IGF-1” value is “++ (>30%@1ug/ml)” and the “Inhibition of IGF-1R Phosphorylation IGF-2” value was “+ (>30%@10 ug/ml)”.

B2: M14-C03: anti-IGF-1R antibody, allosteric blocker of IGF-1 and IGF-2 (antibody, V domains shown)
VH: EVQLLESGGGLVQPGGSLRLSCAASGFTFSKYMMSWVRQAPGKGLEWVSYISPSGGLTWYADSVKGRFTISRDNSKNTLYLQMNSLRAEDTAVYYCARDGARGYGMDVWGQGTTVTVSS
VL: DIQMTQSPATLSLSPGERATLSCRASQSVSSYLAWYQQKPGQAPRLLIYDASNRATGIPARFSGSGSGTDFTLTISSLEPEDFAVYYCQQRSNWPPEVTFGPGTKVDIK
modifications: Antibody variable heavy chain sequence; Antibody variable light chain sequence
For the molecule B2, in the assay with IGF-1R phosphorylation, the “Inhibition of IGF-1R Phosphorylation IGF-1” value is on record as “++ (>30%@1ug/ml)” and the “Inhibition of IGF-1R Phosphorylation IGF-2” value is “++ (>30%@1ug/ml)”.

B3: 20C8.3B8: murine anti-human IGF-1R monoclonal antibody from hybridoma; VH SEQ ID NO:43, VL SEQ ID NO:103 (antibody, V domains shown)
VH: DVQLQESGPDLVKPSQSLSLTCTVTGYSITSGYSWHWIRQFPGNKLEWMGYIHYSGGTNYNPSLKSRISITRDTSKNQFFLQLNSVTTEDTATYYCARSGYGYRSAYYFDYWGQGTTVTVSS
VL: DIVLTQSPASLAVSLGQRATISCRASKSVSTSAYSYMHWYQQKPGQPPKLLIYLASNLESGVPARFSGSGSGTDFTLNIHPVEEEDAATYYCQHSRELPYTFGGGTKLEIK
modifications: Antibody variable heavy chain sequence; Antibody variable light chain sequence
As to B3, in assay [1] (setting [2]), the EC50 is 1.23 nM. For the same molecule, in the assay with IGF-1R phosphorylation, the “Inhibition of IGF-1R.pTyr IGF-1” value is “+++ (>30%@0.1 μg/ml)” and the “Inhibition of IGF-1R.pTyr IGF-2” value was “++ (>30%@1 μg/ml)”.

B4: 20D8.24B11: murine anti-human IGF-1R monoclonal antibody from hybridoma; VH SEQ ID NO:53, VL SEQ ID NO:103 (antibody, V domains shown)
VH: B3 VH with V118L
VL: B3 VL
modifications: Antibody variable heavy chain sequence; Antibody variable light chain sequence
As for B4, in assay [1] (setting [2]), the EC50 is 1.3 nM. In addition, in the assay with IGF-1R phosphorylation, the “Inhibition of IGF-1R.pTyr IGF-1” value is “+++ (>30%@0.1 μg/ml)” and the “Inhibition of IGF-1R.pTyr IGF-2” value is “++ (>30%@1 μg/ml)”.
